The values below come from patent US20140087995A1 (published 2014).

A word on the IC50: it is the concentration that gives 50% inhibition.

B1: N^ε1-[2-[2-[2-[[(4S)-4-carboxy-4-(19-carboxynonadecanoylamino)butanoyl]amino]ethoxy]ethoxy]acetyl]-[Arg17,Pro21,Pro27,Pro28,Pro31]-h-amylin (peptide)
peptide: K([AEEA-γGlu-C20 diacid])CNTATCATQRLANFLRHSSPNFGAIPPSTPVGSNTY-NH2
modifications: disulfide 2-7
notes: also called compound 53
B2: N^ε1-[2-[2-[2-[[(4S)-4-carboxy-4-(19-carboxynonadecanoylamino)butanoyl]amino]ethoxy]ethoxy]acetyl]-[Arg17,Pro21,Pro27,Pro28,Pro34]-h-amylin (peptide)
peptide: K([AEEA-γGlu-C20 diacid])CNTATCATQRLANFLRHSSPNFGAIPPSTNVGPNTY-NH2
modifications: disulfide 2-7; N-terminus assumed
SMILES: CC[C@H](C)[C@H](NC(=O)[C@H](C)NC(=O)CNC(=O)[C@H](Cc1ccccc1)NC(=O)[C@H](CC(N)=O)NC(=O)[C@@H]1CCCN1C(=O)[C@H](CO)NC(=O)[C@H](CO)NC(=O)[C@H](Cc1c[nH]cn1)NC(=O)[C@H](CCCNC(=N)N)NC(=O)[C@H](CC(C)C)NC(=O)[C@H](Cc1ccccc1)NC(=O)[C@H](CC(N)=O)NC(=O)[C@H](C)NC(=O)[C@H](CC(C)C)NC(=O)[C@H](CCCNC(=N)N)NC(=O)[C@H](CCC(N)=O)NC(=O)[C@@H](NC(=O)[C@H](C)NC(=O)[C@@H]1CSSC[C@H](NC(=O)[C@@H](N)CCCCNC(=O)COCCOCCNC(=O)CC[C@H](NC(=O)CCCCCCCCCCCCCCCCCCC(=O)O)C(=O)O)C(=O)N[C@@H](CC(N)=O)C(=O)N[C@@H]([C@@H](C)O)C(=O)N[C@@H](C)C(=O)N[C@@H]([C@@H](C)O)C(=O)N1)[C@@H](C)O)C(=O)N1CCC[C@H]1C(=O)N1CCC[C@H]1C(=O)N[C@@H](CO)C(=O)N[C@H](C(=O)N[C@@H](CC(N)=O)C(=O)N[C@H](C(=O)NCC(=O)N1CCC[C@H]1C(=O)N[C@@H](CC(N)=O)C(=O)N[C@H](C(=O)N[C@@H](Cc1ccc(O)cc1)C(N)=O)[C@@H](C)O)C(C)C)[C@@H](C)O
notes: also called compound 55
B3: N^ε1-[2-[2-[2-[[(4S)-4-carboxy-4-(19-carboxynonadecanoylamino)butanoyl]amino]ethoxy]ethoxy]acetyl]-[Arg17,Pro21,Pro27,Pro29,Pro34]-h-amylin (peptide)
peptide: K([AEEA-γGlu-C20 diacid])CNTATCATQRLANFLRHSSPNFGAIPSPTNVGPNTY-NH2
modifications: disulfide 2-7; N-terminus assumed
SMILES: CC[C@H](C)[C@H](NC(=O)[C@H](C)NC(=O)CNC(=O)[C@H](Cc1ccccc1)NC(=O)[C@H](CC(N)=O)NC(=O)[C@@H]1CCCN1C(=O)[C@H](CO)NC(=O)[C@H](CO)NC(=O)[C@H](Cc1c[nH]cn1)NC(=O)[C@H](CCCNC(=N)N)NC(=O)[C@H](CC(C)C)NC(=O)[C@H](Cc1ccccc1)NC(=O)[C@H](CC(N)=O)NC(=O)[C@H](C)NC(=O)[C@H](CC(C)C)NC(=O)[C@H](CCCNC(=N)N)NC(=O)[C@H](CCC(N)=O)NC(=O)[C@@H](NC(=O)[C@H](C)NC(=O)[C@@H]1CSSC[C@H](NC(=O)[C@@H](N)CCCCNC(=O)COCCOCCNC(=O)CC[C@H](NC(=O)CCCCCCCCCCCCCCCCCCC(=O)O)C(=O)O)C(=O)N[C@@H](CC(N)=O)C(=O)N[C@@H]([C@@H](C)O)C(=O)N[C@@H](C)C(=O)N[C@@H]([C@@H](C)O)C(=O)N1)[C@@H](C)O)C(=O)N1CCC[C@H]1C(=O)N[C@@H](CO)C(=O)N1CCC[C@H]1C(=O)N[C@H](C(=O)N[C@@H](CC(N)=O)C(=O)N[C@H](C(=O)NCC(=O)N1CCC[C@H]1C(=O)N[C@@H](CC(N)=O)C(=O)N[C@H](C(=O)N[C@@H](Cc1ccc(O)cc1)C(N)=O)[C@@H](C)O)C(C)C)[C@@H](C)O
notes: also called compound 56
B4: N^ε1-[2-[2-[2-[[(4S)-4-carboxy-4-(19-carboxynonadecanoylamino)butanoyl]amino]ethoxy]ethoxy]acetyl]-[Arg17,Pro21,Pro27,Pro34,His35]-h-amylin (peptide)
peptide: K([AEEA-γGlu-C20 diacid])CNTATCATQRLANFLRHSSPNFGAIPSSTNVGPHTY-NH2
modifications: disulfide 2-7; N-terminus assumed
SMILES: CC[C@H](C)[C@H](NC(=O)[C@H](C)NC(=O)CNC(=O)[C@H](Cc1ccccc1)NC(=O)[C@H](CC(N)=O)NC(=O)[C@@H]1CCCN1C(=O)[C@H](CO)NC(=O)[C@H](CO)NC(=O)[C@H](Cc1c[nH]cn1)NC(=O)[C@H](CCCNC(=N)N)NC(=O)[C@H](CC(C)C)NC(=O)[C@H](Cc1ccccc1)NC(=O)[C@H](CC(N)=O)NC(=O)[C@H](C)NC(=O)[C@H](CC(C)C)NC(=O)[C@H](CCCNC(=N)N)NC(=O)[C@H](CCC(N)=O)NC(=O)[C@@H](NC(=O)[C@H](C)NC(=O)[C@@H]1CSSC[C@H](NC(=O)[C@@H](N)CCCCNC(=O)COCCOCCNC(=O)CC[C@H](NC(=O)CCCCCCCCCCCCCCCCCCC(=O)O)C(=O)O)C(=O)N[C@@H](CC(N)=O)C(=O)N[C@@H]([C@@H](C)O)C(=O)N[C@@H](C)C(=O)N[C@@H]([C@@H](C)O)C(=O)N1)[C@@H](C)O)C(=O)N1CCC[C@H]1C(=O)N[C@@H](CO)C(=O)N[C@@H](CO)C(=O)N[C@H](C(=O)N[C@@H](CC(N)=O)C(=O)N[C@H](C(=O)NCC(=O)N1CCC[C@H]1C(=O)N[C@@H](Cc1c[nH]cn1)C(=O)N[C@H](C(=O)N[C@@H](Cc1ccc(O)cc1)C(N)=O)[C@@H](C)O)C(C)C)[C@@H](C)O
notes: also called compound 58
B5: N^ε1-[2-[2-[2-[[(4S)-4-carboxy-4-(19-carboxynonadecanoylamino)butanoyl]amino]ethoxy]ethoxy]acetyl]-[Arg17,Pro21,Pro27,Pro29,Pro31]-h-amylin (peptide)
peptide: K([AEEA-γGlu-C20 diacid])CNTATCATQRLANFLRHSSPNFGAIPSPTPVGSNTY-NH2
modifications: disulfide 2-7; N-terminus assumed
SMILES: CC[C@H](C)[C@H](NC(=O)[C@H](C)NC(=O)CNC(=O)[C@H](Cc1ccccc1)NC(=O)[C@H](CC(N)=O)NC(=O)[C@@H]1CCCN1C(=O)[C@H](CO)NC(=O)[C@H](CO)NC(=O)[C@H](Cc1c[nH]cn1)NC(=O)[C@H](CCCNC(=N)N)NC(=O)[C@H](CC(C)C)NC(=O)[C@H](Cc1ccccc1)NC(=O)[C@H](CC(N)=O)NC(=O)[C@H](C)NC(=O)[C@H](CC(C)C)NC(=O)[C@H](CCCNC(=N)N)NC(=O)[C@H](CCC(N)=O)NC(=O)[C@@H](NC(=O)[C@H](C)NC(=O)[C@@H]1CSSC[C@H](NC(=O)[C@@H](N)CCCCNC(=O)COCCOCCNC(=O)CC[C@H](NC(=O)CCCCCCCCCCCCCCCCCCC(=O)O)C(=O)O)C(=O)N[C@@H](CC(N)=O)C(=O)N[C@@H]([C@@H](C)O)C(=O)N[C@@H](C)C(=O)N[C@@H]([C@@H](C)O)C(=O)N1)[C@@H](C)O)C(=O)N1CCC[C@H]1C(=O)N[C@@H](CO)C(=O)N1CCC[C@H]1C(=O)N[C@H](C(=O)N1CCC[C@H]1C(=O)N[C@H](C(=O)NCC(=O)N[C@@H](CO)C(=O)N[C@@H](CC(N)=O)C(=O)N[C@H](C(=O)N[C@@H](Cc1ccc(O)cc1)C(N)=O)[C@@H](C)O)C(C)C)[C@@H](C)O
notes: also called compound 54
B6: N^ε1-[2-[2-[2-[[(4S)-4-carboxy-4-(19-carboxynonadecanoylamino)butanoyl]amino]ethoxy]ethoxy]acetyl]-[Arg17,Pro21,Pro27,Pro31,His35]-h-amylin (peptide)
peptide: K([AEEA-γGlu-C20 diacid])CNTATCATQRLANFLRHSSPNFGAIPSSTPVGSHTY-NH2
modifications: disulfide 2-7; N-terminus assumed
SMILES: CC[C@H](C)[C@H](NC(=O)[C@H](C)NC(=O)CNC(=O)[C@H](Cc1ccccc1)NC(=O)[C@H](CC(N)=O)NC(=O)[C@@H]1CCCN1C(=O)[C@H](CO)NC(=O)[C@H](CO)NC(=O)[C@H](Cc1c[nH]cn1)NC(=O)[C@H](CCCNC(=N)N)NC(=O)[C@H](CC(C)C)NC(=O)[C@H](Cc1ccccc1)NC(=O)[C@H](CC(N)=O)NC(=O)[C@H](C)NC(=O)[C@H](CC(C)C)NC(=O)[C@H](CCCNC(=N)N)NC(=O)[C@H](CCC(N)=O)NC(=O)[C@@H](NC(=O)[C@H](C)NC(=O)[C@@H]1CSSC[C@H](NC(=O)[C@@H](N)CCCCNC(=O)COCCOCCNC(=O)CC[C@H](NC(=O)CCCCCCCCCCCCCCCCCCC(=O)O)C(=O)O)C(=O)N[C@@H](CC(N)=O)C(=O)N[C@@H]([C@@H](C)O)C(=O)N[C@@H](C)C(=O)N[C@@H]([C@@H](C)O)C(=O)N1)[C@@H](C)O)C(=O)N1CCC[C@H]1C(=O)N[C@@H](CO)C(=O)N[C@@H](CO)C(=O)N[C@H](C(=O)N1CCC[C@H]1C(=O)N[C@H](C(=O)NCC(=O)N[C@@H](CO)C(=O)N[C@@H](Cc1c[nH]cn1)C(=O)N[C@H](C(=O)N[C@@H](Cc1ccc(O)cc1)C(N)=O)[C@@H](C)O)C(C)C)[C@@H](C)O
notes: also called compound 57

Numbered stars: 1 amine (or outer) side, 2 acyl side, 3 side chain; on linkers, the order of the positions; unused ones are H or OH. Bridge positions count the residues as written; N and C are the ends. Side chains are listed from the residue outwards. Ends that are not written are not given here. * marks the point of attachment. C20 diacid = O=C(O)CCCCCCCCCCCCCCCCCCC(=O)*; γGlu = O=C(O)[C@H](CCC(=O)[*:2])N[*:1]; AEEA = NCCOCCOCC(=O)O

The assay concerns the target T1, human calcitonin receptor (human, UniProt P30988 25-474).
T1 construct: whole, on cells; also called hCTR; hCT
T1 sequence (looked up): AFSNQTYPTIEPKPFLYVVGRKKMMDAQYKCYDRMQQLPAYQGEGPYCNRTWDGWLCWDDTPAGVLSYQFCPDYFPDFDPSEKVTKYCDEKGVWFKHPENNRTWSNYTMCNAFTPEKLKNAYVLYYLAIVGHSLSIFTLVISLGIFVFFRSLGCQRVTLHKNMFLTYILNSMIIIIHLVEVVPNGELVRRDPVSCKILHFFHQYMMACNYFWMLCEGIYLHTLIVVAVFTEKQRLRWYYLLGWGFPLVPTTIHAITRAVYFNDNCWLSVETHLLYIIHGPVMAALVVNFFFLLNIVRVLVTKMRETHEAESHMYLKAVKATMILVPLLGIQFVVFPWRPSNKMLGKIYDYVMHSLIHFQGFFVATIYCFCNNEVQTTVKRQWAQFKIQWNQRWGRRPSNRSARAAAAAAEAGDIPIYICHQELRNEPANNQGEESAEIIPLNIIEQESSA
The experiment in a line: SPA competition with 125I-calcitonin, membranes of BHK hCTR cells (Assay VII). As to the method:
Membranes were prepared in the following way; the cells were rinsed with PBS and incubated with Versene for approximately 5 min before harvesting. The cells were flushed with PBS and the cell-suspension was centrifuged for 5 min at 1000 rpm. Cells were homogenized (Ultrathurrax) in a buffer containing 20 mM Na-HEPES and 10 mM EDTA (pH 7.4) and centrifuged at 20.000 rpm for 15 min. The resulting pellet was resuspended, homogenized and centrifuged (20.000 rpm, 15 min) in a buffer containing 20 mM Na-HEPES and 0.1 mM EDTA (pH 7.4, buffer 2). The resulting pellet was resuspended in buffer 2 and protein concentration was measured (BCA protein Assay, Pierce). The homogenate was kept cold during the whole procedure. The membranes were kept at −80° C. until use. Assay was performed in a 384 well Optiplate (PerkinElmer) in a total volume of 40 ul. Membranes were mixed with SPA beads. Final concentration of membranes 35 ng/μL final and Final concentration of SPA beads was 0.05 mg/well. Test-compounds were dissolved in DMSO and further diluted in assay buffer (50 mM Hepes, pH 7.4, 1 mM CaCl2, 5 mM MgCl₂, 0.1% OA and 0.02% Tween20). […] The final mixture was incubated for 120 min with shaking at 400 rpm at 25° C. prior to centrifugation (1500 rpm, 10 min). Samples were analyzed on TopCounter™ (Packard). The […] was calculated using (one site binding competition analysis) GraphPad Prism5 as a measure of receptor affinity.
As to B1, the IC50 was 5.38 nM.

For B2, the half-inhibitory concentration (IC50) stood at 2.17 nM.

In the case of B3, the IC50 was found to be 2.09 nM.

On to B4, for which the half-maximal inhibitory concentration (IC50) was found to be 9.63 nM.

With B5, the 50% inhibitory concentration (IC50) amounted to 4.38 nM.

Consider B6, for which the half-maximal inhibitory concentration (IC50) turned out to be 15.3 nM.
